Series [1] deals with the molecule itself. In words: single-molecule pull-down (SiMPull); purified co-expressed recombinant PCDH15/LHFPL5 complex (100 pM) captured on slide by biotinylated anti-PCDH15 mAb 8D1; detected with 39G7 Fab-GFP and anti-LHFPL5 mAb-Alexa647 (colocalization) or with 39G7 Fab-GFP or anti-LHFPL5 Fab-GFP (photobleaching steps); TIRF; buffer with 0.005% C12M, 0.001% CHS, pH 8.0.

Series [2] deals with the molecule itself. In words: single-molecule pull-down (SiMPull); solubilized cochlea supernatant of P6 mice applied to slide coated with anti-PCDH15 mAb 8D1; detected with 39G7 Fab-GFP and anti-LHFPL5 mAb-Alexa647 (colocalization) or with 39G7 Fab-GFP or anti-LHFPL5 Fab-GFP (photobleaching steps); TIRF.

B1: recombinant protocadherin-15 (PCDH15), residues 1-1462 (EC1-EC11 and part of the cytoplasmic region) (domain or fragment)
chain: not shown
notes: signal peptide in the construct; also called recombinant PCDH15; source: HEK293 tsa201 cells co-infected with PCDH15 and LHFPL5 BacMam viruses; purified as a complex with LHFPL5 (Strep-Tactin, TALON, SEC)
B1: the “stoichiometry N” value in series [1] was 2.

B2: native lipoma HMGIC fusion partner-like protein 5 (LHFPL5) from mouse cochlea or utricle (natural protein, UniProt Q4KL25 1-219, looked up)
chain: MVKLLPAQEAAKIYHTNYVRNSRAVGVMWGTLTICFSVLVMALFIQPYWIGDSVSTPQAGYFGLFSYCVGNVLSSELICKGGPLDFSSIPSRAFKTAMFFVALAMFLIIGSIICFSLFFVCNTATVYKICAWMQLAAATGLMIGCLVYPDGWDSSEVRRMCGEQTGKYTLGHCTIRWAFMLAILSIGDALILSFLAFVLGYRQDKLLPDDYKADGNEEV
notes: LHFPL5 (TMHS), mouse, endogenous in inner ear tissue; also called native LHFPL5; TMHS; source: endogenous, cochlea or utricle of P6 mice, solubilized (1% C12M, 0.2% CHS), supernatant
On to B2, for which the “stoichiometry N” value in series [2] turned out to be 2.

B3: native protocadherin-15 (PCDH15) from mouse cochlea or utricle (natural protein)
chain: not shown
notes: protocadherin-15, mouse, endogenous in inner ear tissue; also called native PCDH15; source: endogenous, cochlea or utricle of P6 mice, solubilized (1% C12M, 0.2% CHS), supernatant
Take B3: the “stoichiometry N” value in series [2] is 2.

B4: recombinant lipoma HMGIC fusion partner-like protein 5 (LHFPL5), residues 2-219 (natural protein, Mus musculus, UniProt Q4KL25 2-219, looked up)
chain: VKLLPAQEAAKIYHTNYVRNSRAVGVMWGTLTICFSVLVMALFIQPYWIGDSVSTPQAGYFGLFSYCVGNVLSSELICKGGPLDFSSIPSRAFKTAMFFVALAMFLIIGSIICFSLFFVCNTATVYKICAWMQLAAATGLMIGCLVYPDGWDSSEVRRMCGEQTGKYTLGHCTIRWAFMLAILSIGDALILSFLAFVLGYRQDKLLPDDYKADGNEEV
notes: the results call the construct the full-length protein; also called TMHS; recombinant LHFPL5; source: HEK293 tsa201 cells co-infected with PCDH15 (or PCDH15_(1EC)) and LHFPL5 BacMam viruses; purified as a complex (Strep-Tactin, TALON, SEC)
In the case of B4, the “stoichiometry N” value in series [1] worked out at 2.

These data come from article PMC13228514, “The protocadherin-15-LHFPL5 tip link complex is a heterotetrameric assembly in hair cell stereocilia” (Biophysical Journal, 2026).
